# Test results reported in publication PMC9392717.
# System: His/Xpress-Gemin5 (pcDNA3Xpress-Gemin5)
# Assay: pull-down (UV-irradiated HEK293 cells, Ni-NTA, RT-qPCR)
# Details: EMSA: RNA folded in 100 mM HEPES pH 8.0, 100 mM NaCl, 5.25 mM MgCl2, 37 C; binding in 40 mM Tris-HCl pH 7.5, 250 mM NaCl, 0.1% (w/v) bME, 15 min, room …
substance,measurement,value
L32-WT-luc mRNA (5'TOP),binding signal (fold vs L32-CM6),5
